The results in this text go back to the DeepSol protein solubility set.

A short description of this series: soluble on expression in E. coli; label from the status in PepcDB or PDB records.
Regarding “MGSDKIHHHHHHMAKLDDATLAQLFTEARSHNGWNPEPLPESVLRELYALTKFGPTAANGSPARFYFVTSAEAKERLAKLSSGSNGPKIMQAPCTVIIGYDLDFPQTLPKLFPHAPGAKDWFNDPVAKEWCALRNSSLQGGYFMIGARALGLDVGPMSGFDNAAVDAEFFAGTNIKSNFIVSIGHGTDEGLFPRNPRLDFDEAAKIL”, the “soluble on expression in E. coli” value is “not soluble”.

Consider “MSLISPIIRLSHVTFQTSSAARVIKEFVTKYQFHPFAARGLDGGSPCQVALKNGGVVFMVNENTPKTHENSVLLYDFPLQIPFPDTACNVTFEVEDVSGLYHHLVDEGCQLLLPPTELHDDFGSVTYCIVKSVVGNVSHTLIDRTHYRSSFLPGFEYLKNSTHNLSSGNMTHVDHIAYTCPRGTSPSILEWYRRCFGFQHFPLSKGEDPERGFEIIGPRIGLRLTSLVCPKLSKECKLVLAESLPQEGINQVDEFMQQHTGGGIQHIGLSTPDIFKAAEDLSKLGVCFAIQPSSYYSETKKQKEIYSVGLEPQMLAQFGILMDSATDDILSNDAPKKFLLQVFAEPLFSKNSAFLELIERRSAEGFGEGNIRALWRSMQDLQEDQTVKEQEGEGHHHHHH”, for which the “soluble on expression in E. coli” value was “soluble”.

As for “TDNFSWSTNLNFSYNDNKIKELVDDLPNGLTLTDFGGAKVILKEGGHYGDLYVRHLMRDENGKPLQNEKGEPIVSGDSMDELEYAGNMNAKVNMGWTNTFRYKDFSLSFLIDAKFGGKVISMTEAALDGWGVSKRSGEARDAGGITVDGVKFDADKYYRTTGNNNFNSPYAVENYVYDATNIRLREVTFGYTFRNLLGAGKNLTAAIIGRNLFFFHKDAPMDPDVSAGTGNGIQGVDMFALPTSRSFGLNLKLNF”, the “soluble on expression in E. coli” value is given as “not soluble”.

Consider “MPRPQGTVAAAAATTSMSSTRARKDPLRRIGNGNAVAGGLDMTRVGILSDRELAFFQRLAYTGSQAAEQQQRDARKQEEDRRRELSKTRTAGWTDTIEARHDQFVQAQQDAKDAAEARQKVLDELYAKQLEEEHKAVIARQALEHLKEDPRGRHLRSMNMLHEALKARKEQVAYKQMLQREDEAQNANAQREFQLQRWGDQAEELHKKLKARQRNVEEKNANLETVLFQIDQRRQERAVQQQDRKHIDQEAAEERAEQQEEAAQRRARELENGAYNKAHSRPALTRSEKLQTRVAENVKDEAALRAEEEKVDSIKRWVMERQQNKLAAFEERKKAGLRRYLDEAKQENLPTYRTQDVFEKGESFLQKLYDGDVKQQEKQHEYRLEMEQQRLEMEEQKAAEARGDVVGSGDGADGSTSRRHAAATTAAGFLNKAEEMAYAEEMRRYPEQLRAKEAEEAAARRAEALRIERIQKLQAAEKRENARRAVEARREEFRQQQSQQEADDARYRAYIDSVVPADMDPILYRKATQLH”, for which the “soluble on expression in E. coli” value is on record as “soluble”.

Consider “AHHHHHHGSFKILRKERLAPGINLFEIESPRIAKHAKPGQFVMIRLHEKGERIPLTIADVDISKGSITIVAQEVGKTTRELGTYEAGDYILDVLGPLGKPSHIDYFGTVVMIGGGVGVAEIYPVAKAMKEKGNYVISILGFRTKDLVFWEDKLRSVSDEVIVTTNDGSYGMKGFTTHALQKLIEEGRKIDLVHAVGPAIMMKAVAELTKPYGIKTVASLNPIMVDGTGMCGACRVTVGGEVKFACVDGPEFDAHLVDWDQLMNRLAYYRDLEKISLEKWERERRMV”, for which the “soluble on expression in E. coli” value is reported as “soluble”. Consider “MSLETVRLQRELIEAQRQTYNEMRTYFTVNGVEGVIGAVFDEGVITLRVPSEVLFAPGAVELAPGADRVLATLKDLFIRRREQNINIKGFTDDVQPSANARFKDNWEVSALRSVNVLRYFLGAGIEPARLTATGLGELDPLFPNTSDENRARNRRVEFVLERRVVREGHHHHHH”, for which the “soluble on expression in E. coli” value is on record as “soluble”.

As to “VFQSILDEIDVGLHVVDEHGNTIVYNNKMMQIEDMEKHDVLNKNLMDVFMFSKQQDSTLVQALQEGKTIKNVKQSYFNNKGQEITTINHTYPIVQDGKIRGAVEIAKDVT”, the “soluble on expression in E. coli” value is recorded as “not soluble”.

Consider “MSFGLVGTVNNNGWKSPFRHETKYRAGYDKFKYYKTHYRGAKKAGTNDDRWRWTAWFDLDFAHQKIVLIERGELHRQADLKKSDPATNETSKTVWGSIKEKLLQNVNNLHSEKGVFLWFRQSGFTTTRN”, for which the “soluble on expression in E. coli” value is on record as “soluble”. For the sequence “MAHHHHHHMFNNDPLQKYDKELFDLLEKEKNRQIETINLIASENLTNTAVRECLGDRISNKYSEGYPHKRYYGGNDYVDKIEELCYKRALEAFNVSEEEWGVNVQPLSGSAANVQALYALVGVKGKIMGMHLCSGGHLTHGFFDEKKKVSITSDLFESKLYKCNSEGYVDMESVRNLALSFQPKVIICGYTSYPRDIDYKGFREICDEVNAYLFADISHISSFVACNLLNNPFTYADVVTTTTHKILRGPRSALIFFNKKRNPGIDQKINSSVFPSFQGGPHNNKIAAVACQLKEVNTPFFKEYTKQVLLNSKALAECLLKRNLDLVTNGTDNHLIVVDLRKYNITGSKLQETCNAINIALNKNTIPSDVDCVSPSGIRIGTPALTTRGCKEKDMEFIADMLLKAILLTDELQQKYGKKLVDFKKGLVNNPKIDELKKEVVQWAKNLPFA”, the “soluble on expression in E. coli” value is “soluble”. Regarding “MIDSQGWYRLARKVPSPHCDVRHDSEDISLLVVHNISLPPGQFGGPYIEQFFLGELDANQHSFFKVIAKMRVSAHCVIRRDGEVVQFVPFHLRAWHAGVSSFAGRAKCNDYSIGIELEGSDFVPYTDAQYQALTELTQALMVRYPHITLPRITGHQYIAPLRKTDPGLVFDWRRFRAGLKS”, the “soluble on expression in E. coli” value is “not soluble”. Regarding “GMTSPSIESGARERTRRAILDAAMLVLADHPTAALGDIAAAAGVGRSTVHRYYPERTDLLRALARHVHDLSNAAIERADPTSGPVDAALRRVVESQLDLGPIVLFVYYEPSILADPELAAYFDIGDEAIVEVLNRASTERPEYPPGWARRVFWALMQAGYEAAKDGMPRHQIVDAIMTSLTSGIITLPRT”, the “soluble on expression in E. coli” value was “soluble”. Regarding “MTDKLPLALFLMGPTASGKTELAIRLRQKFPVEIISVDSALIYKGMDIGTAKPDERELSLAPHRLIDILDPSESYSAADFRRDALQAMDDIVAEGKIPLLVGGTMLYYKALLEGLSPLPAANPEIRQQIEQEALTKGWSVLHDELKEIDPVSAARIHPNDPQRLSRALEVYRISGKTLTELTQTKGESLPYRVKQFAIAPKDRAELHRRIELRFDKMMEAGFEEEMKALYARKDLHPDLPSIRCVGYRQMWEYLDGECTRDEAVFRGVCATRQLAKRQITWLRSWDDLTWLDSDNIEQALETMSEAIASDLEHHHHHH”, the “soluble on expression in E. coli” value was “soluble”. The value for “MSLSKLDIPLSIMQKSVVIRPGGRQEMDEHVAIETPYAIALNDRVIGSSMVLPVDLEEFGAGFLFGQGYIKKAEEIREILVCPQGRISVYADVENEEPREVIITSGCGGTGKIPKEMLEGEFAPLADYCLPFAEIKSFIREALHSSPLGPQTHCVHGCGLWNNGRLQVYHEDVGRHNAVDKVLGSILLGRASNNSAVYTTGRLTSDMVLKCARIGIPIIMSRTSPSSLGLALAKRSGATLVAYSRPERINVFNAPERILTEGHHHHHH” was “soluble”; that for “MPRFSCYEVRSEFPELERGIVYLDNAASTLKPRRVVEAMREFSYRSYANVHRGVHRLSMEASKAYEDAHEVVARLVGGSWDEVVFTRNTTEAMQLAALTLAYNGLLRGGEVLVTAADHHSTLLPWVRAARLGGGRARILPLDGRGVPRWDLLEDYITEDTRAVAVGHVSNVTGVVAPVEDIVKAAKKVGALVVLDSAQGVPHLPVDFRRMGVDMAAFSGHKMLGPTGIGVLWARRDLLEELEPPLGGGGTVSRVRLQGGSVEIEWEEPPWKFEAGTPPIIEAVGLAEAANMLMEIGMEHVARHEDELTSHTMKLLEPLYSEGLIRYVGPDKPGERHGIVSITTHLKSPDELGLLLDRRGIAVRTGLHCAHILHDHVDASMGSVWASFYIYNCKEDAERLAEALEEILTTRR” was “soluble”; that for “IKDFDYNIGFNMSTTKNKVVELSDADQVLQGEGLKYGTEHFPTETRVGKPIGAFYLYRTDGIFQSMDEVNAHVNKDGQLLQPNAQPGDIRFKDLDGNGSIDAGDKEYCGSGIPTLEANLNLSFGYKGFDLSIVLGSAWNFKLYNGNKYFYEGMNSKSNMLKSTLNAWTPDNRNTDVPRAVYQDPNGNMKESDRFLENGDFVRLRQAQLGYTLPKSLMQKFYIEKLRFYVSGENLFTITGYDGIDPEFSRASVLNTGVDKLIYPFTRSFTVGAQLTF” was “not soluble”. On to “MINFDNFKKYQESFGYMAQQLCFPEKLTFHPKTFEETISKDHPAYEDLVAFRNVMMTFSLSEIKAIYTDTFDFTKKAPLYMTYNKFDTQKERGQMLAKLKVLYEMFGLEMVDNELSDYLPLMLQFLQVAEWRNDPRAEENIQLIIMIIEDGTYVMANALGEDNNPYAYVIQALRKTLKLCLTSPKGVKHHA”, for which the “soluble on expression in E. coli” value is “not soluble”.

Consider “LTLGNTTSSVILTNYMDTQYYGEIGIGTPPQTFKVVFDTGSSNVWVPSSKCSRLYTACVYHKLFDASDSSSYKHNGTELTLRYSTGTVSGFLSQDIITVGGITVTQMFGEVTEMPALPFMLAEFDGVVGMGFIEQAIGRVTPIFDNIISQGVLKEDVFSFYYNRDSENSQSLGGQIVLGGSDPQHYEGNFHYINLIKTGVWQIQMKGVSVGSSTLLCEDGCLALVDTGASYISGSTSSIEKLMEALGAKKRLFDYVVKCNEGPTLPDISFHLGGKEYTLTSADYVFQESYSSKKLCTLAIHAMDIPPPTGPTWALGATFIRKFYTEFDRRNNRIGFALAR”, for which the “soluble on expression in E. coli” value is listed as “soluble”. Take “MKTLTEIKQTPKGIIKADESFNQVKDKIRLPRRILYLGCGSSHFLAKLLAMVTNMHGGTGVALPCSEFLYSKEAYPIGKPELVVGISRSGETTEVLLALEKINTPKLGISAYESSLTRACDYSLVVPTIEESVVMTHSFTAFYFAYLQLLRHSYGLPLLEATEVAKATEKALEYENYIKEIVEDFDFQNVIFLGSGLLYPVALEASLKMKEMAIFWSEAYPTFEVRHGFKAIADENTLVVLMAQELFEWHKKLVNEFKGQRARVLLISNSQQEFGQDYSIEVPRLSKDATPIPYLPVVQLLSYYKAVARGLNPDNPRFLDKVVRWLEHHHHHH”: the “soluble on expression in E. coli” value is reported as “soluble”. Turning to “YHETVIYEAHVKGMTQTHPSIPPELRGTYAGLAHPVIIDHLNELNVTAVELMPVHQFLHDSRLLDLGLRNYWGYNTFGFFAPHHQYASTRQAGSAVAEFKTMVRSLHEAGIEVILDVVYNHTAEGNHLGPTINFRGIDNTAYYRLMDHDLRFYKDFTGTGNSLNARHPHTLQLIMDSLRYWVIEMHVDGFRFDLASTLARELHDVDRLSAFFDLVQQDPVVSQVKLIAEPWDVGEGGYQVGNFPGLWTEWNGKYRDTVRDYWRGEPATLGEFASRLTGSSDLYEATGRRPSASINFVTAHDGFTLNDLVSYNDKHNEANGENNRDGESYNRSWNCGVEGPTDDPDILALRARQMRNMWATLMVSQGTPMIAHGDEIGRTQYGNNNVYCQDSELSWMDWSLVDKNADLLAFARKATTLRKNHKVFRRRRFFEGEPIRSGDEVRDIAWLTPSGREMTHEDWGRGFDRCVAVFLNGEAITAPDARGERVVDDSFLLCFNAHDHDVEFVMPHDGYAQQWTGELDTNDPVGDIDLTVTATDTFSVPARSLLVLRKTL”, the “soluble on expression in E. coli” value is “soluble”. With “MGSDKIHHHHHHLYVPLLIRQQYIRSGPDYRFSEPVSFLDIKQTFGFSHVRVGRWVTREESRIAANLVFDSLADLAFILKLPPLTLGLRQTLSLAFGHGGQKGVQAHYAPATRELALAKNAGAGALAHEFWHAFDHYIAPKAFNLSEGHFLCASDLWLADSPLIKHPLNLRLSEIFKVTLLSPDGKEPSDYVRRALALDKRYGTRYFSQPTEMMARAFEACIESYRDISNPYLVSGTSFSAMAKEGAYPDELHRQRIFTALLDYFEPLGIALAK”, the “soluble on expression in E. coli” value is reported as “not soluble”.
